In article PMC3159028 (Journal of molecular biology, 2011):
Like-named read-outs stand apart in the source and are kept apart here.

How the values were obtained:
SEC [1] = target: the molecule itself; assay: SEC
SEC [2] = target: the molecule itself; assay: SEC; remark: listed apart in the source

Protein | stoichiometry N (SEC [1]) | stoichiometry N (SEC [2])
hNudC^1–141, N-terminal fragment of human NudC (dimerization domain) (domain or fragment) not shown | 2 | 
human NudC, full length (NudC^1–331) (natural protein) not shown |  | 2
human NudC-like protein (NudCL), full length (natural protein, UniProt Q8IVD9 1-361, looked up) METGAAELYDQALLGILQHVGNVQDFLRVLFGFLYRKTDFYRLLRHPSDRMGFPPGAAQALVLQVFKTFDHMARQDDEKRRQELEEKIRRKEEEEAKTVSAAAAEKEPVPVPVQEIEIDSTTELDGHQEVEKVQPPGPVKEMAHGSQEAEAPGAVAGAAEVPREPPILPRIQEQFQKNPDSYNGAVRENYTWSQDYTDLEVRVPVPKHVVKGKQVSVALSSSSIRVAMLEENGERVLMEGKLTHKINTESSLWSLEPGKCVLVNLSKVGEYWWNAILEGEEPIDIDKINKERSMATVDEEEQAVLDRLTFDYHQKLQGKPQSHELKVHEMLKKGWDAEGSPFRGQRFDPAMFNISPGAVQF |  | 2
mouse NudC-like 2 protein (NudCL2), full length (natural protein, UniProt Q9CQ48 1-157, looked up) MSAPFEERSGVVPCGTPWGQWYQTLEEVFIEVQVPPGTRAQDIQCGLQSRHVALAVGGREILKGKLFDSTIADEGTWTLEDRKMVRIVLTKTKRDAANCWTSLLESEYAADPWVQDQMQRKLTLERFQKENPGFDFSGAEISGNYTKGGPDFSNLEK |  | 2
